The values that follow are results of earlier work, collected in article PMC9570074.

For one data set, the target named is CD30L (Homo sapiens) (UniProt P32971). Kind of data set: SPR. In general terms: In SPR one partner is held on a chip, and binding of the other changes the refractive index at the surface.
Data set [1] deals with TRAIL (Homo sapiens) (UniProt P50591).
Data set [2] shares this target. This is another data set of the same source.

Where two headings read alike, the source gives them in different places.

Chain of UniProt P50591 (P50591 whole entry): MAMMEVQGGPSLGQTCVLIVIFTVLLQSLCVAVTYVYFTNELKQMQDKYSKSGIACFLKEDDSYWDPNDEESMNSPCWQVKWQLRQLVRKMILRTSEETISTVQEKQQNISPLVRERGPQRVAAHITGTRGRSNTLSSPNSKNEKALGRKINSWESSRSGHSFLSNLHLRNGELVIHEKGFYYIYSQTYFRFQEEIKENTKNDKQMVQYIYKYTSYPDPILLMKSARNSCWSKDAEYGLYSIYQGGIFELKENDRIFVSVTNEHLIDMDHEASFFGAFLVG
Chain of UniProt P32971 (P32971 whole entry): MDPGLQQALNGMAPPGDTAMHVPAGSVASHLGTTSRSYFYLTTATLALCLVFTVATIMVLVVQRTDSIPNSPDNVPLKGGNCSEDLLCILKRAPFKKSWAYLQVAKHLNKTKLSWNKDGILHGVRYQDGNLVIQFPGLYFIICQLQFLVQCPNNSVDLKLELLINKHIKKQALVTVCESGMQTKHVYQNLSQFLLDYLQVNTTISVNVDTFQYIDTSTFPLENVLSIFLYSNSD

With CD30 (from UniProt P28908), in the data set with CD30L (Homo sapiens), the Kd – broadly, a measure of binding affinity in units of concentration – was 5 nM. Take DcR1 (from UniProt O14798): in the data set with TRAIL (Homo sapiens) [1], the Kd is 1 nM.

Take DcR2 (from UniProt Q9UBN6): the dissociation constant Kd with TRAIL (Homo sapiens) [2] was 1 nM.
